From the nanobody polyreactivity screen of Harvey et al. (2022) come the findings set out here.

This data set can be described thus: yeast display, Sf9 membrane polyspecificity reagent, FACS + sequencing; frameworks hold sequencing errors. A digest of the protocol:
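Using colony PCR, genes from sorted yeast display clones were amplified, then sequenced on MiSeq at 2 × 250 and filtered by CDR length. The clones had been stained with 10% biotinylated, detergent-solubilized Sf9 membrane reagent for 1 hour at 4 °C and sorted by FACS into low and high (top ~1%) gates on anti-HA and streptavidin fluorescence. Polyreactivity labels come from the gate of origin.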
For “QDQLVESGGGLVQAVGSLRLSCAASGSIFSFNAIGWYRQAPGKERELVAVITQRGGSTYYADSVKGRFTISRDNAKTTVYLQMNSLKPEDTAVDYCAARTPRGYYYWGQGTQVTVSS”, the “polyreactivity (PSR sort gate)” value is “high polyreactivity”.
On to “QDQLVESGGGLVQEGRILRLISADSGRISRFNAMGWYRPAPGKERELVAAITRGASTYYADSVKGRFTISRDNAKNTVYLEMNSVKPEVTAVYYCAAAPSYSWTSVARYFYWGQGTQVPVSS”, for which the “polyreactivity (PSR sort gate)” value was “high polyreactivity”.
In the case of “QDQLVESGGGLVQSGGSLRLSCAASGSILWSYAMGWYIQAPGKERELVAANTSGGSTYYADSVKGRFTISRDNAKNTVYLQMNSLKPEDTAVYFCAADRWRDFWFNEEYWGQGTQVTVSS”, the “polyreactivity (PSR sort gate)” value is on record as “high polyreactivity”.
Next, “QDQLVESGGGLVQSGGSLRLSCAASGYIFGPYAMGWYRQAPGKEREFVATISGSVGSTYYADSVKGRFTISRDNGKNTVYLQMNSLKPQDTAVYYCNKDHSVYGYEYWGQGTQVTVSS”: “low polyreactivity”; “QDQLVESGGRLVQAGGSLRLSCAASGRTFYYYAMGWYRQAPGKERELVARIRSGGSTNYADSVKGRFTISRDNAKNSVYLQMNSLKPEDTAVYYCNALGAKGYVKGFDYWGQGTQVTVSS”: “low polyreactivity”; “QDQLVESGGVLVQAGGSLRLSCAASGSIFGYYAMGWYRQAPGKERELVARISYSGGTTYYADSVKGRFTNSRDNAKNTVYLQMNSQIPEDTAVYYCNARIPYSWRYGYWGQGTQVTVSS”: “high polyreactivity”.
Next, “QDQLVESGRGLVEAGGSLRLSCAASGRILGRYAMGWNRQAPGKERELVAAISRSGGTTYYADSVKGRFTISRDNAKNTVYLEMNSLKPEDTAVYDCARLRVYAAVYDYWGQGTQVTVSS”: “high polyreactivity”; “QDQLVESGVGLVQAGGSLRLSCAASGFTFTRNAMGWYRQAPGKEREFVAAITRSGGSTYYADSVKGRFTISRDNAKNTVYLQMNSLKPEDTAVYYCAAEVSSFLYTPSYSTDDYWGQGTQVTVSS”: “high polyreactivity”.
With “QDQLVESRGDLVQAGGSLRLSCAASGSIFYDYAMRWYRQAPGKERELVAASDSGRNTTYADSVKGRFTISRDNAKKTVYFQMNSLKPEATAVYYCKTDPGWFDDSPPDPYIYGGYDYWGQGTQVTVSS” the entry was “high polyreactivity”; with “QDQLVESRGGIVQAGGSLRLSCAASGSTFRLYAMGWYRQAPGKERELVAAISSGGTTKYADSVKGRFTNSRDNAKNTVYLQMNSLTPEDTAVYYCNAVYHWGNPGEYATLPRYDYWGQGTQVNVSS”, “high polyreactivity”.
As to “QDQLVESRGGLVQAGGRLRLSCAASGSIFASNTIGWYRQAPGKEREVVAGITKIGSSTYYADSVKGRFTISRDNAKNTVYLQMNSLKPEDTAVYYCNAYGPNIYSARYDYWGQGTQVTVSS”, the “polyreactivity (PSR sort gate)” value is given as “low polyreactivity”.
With “QDQLVESRGGLVQAGGSLRLSSAASGFTLVVNAMGWYRQAPGKERELVAAITSRCGGTYYADSVKGRFTISRDKANNSVYLQMNSLKPEDTAVYYCAAPSLIVSTHRYGYWGQGTEVTVSS” the entry was “low polyreactivity”; with “QDQLVESVGGLDQAGGSLRLSCAASGRIFVHNAMGWYRQAPGKEREFVAAISLRGGSTYYADSVKGRFTISRDNAKNTVYLQMNSLKTEDTAVYYCAAVPAHFYGFDYCGQGTQVTVSS”, “low polyreactivity”.
For the sequence “QDQLVESVGGLDQAGGSLRLSSAASGRTFWWNAMGWYRQAPGKERELVAVISYSGGSTYYADSVKGRFTISRDNAKNTVYLQMNSLKPEDTAVYYCAAATRVRGFTEYYWGQGTQVTVSS”, the “polyreactivity (PSR sort gate)” value is “high polyreactivity”.
As for “QDQLVESVGGLVQAGGSLRLSCAASGNTFRSYVLGWYRQAPGKERELVADISSGDGTNYADSVKGRFTISRDNAKNTVYLQMNSLKREDTAVYYCAKDVYNFRTTHSYFTGYDSWGQGTQVTVSS”, the “polyreactivity (PSR sort gate)” value was “low polyreactivity”.
For the sequence “QDQLVESVGGVVQAGGSLRLSCAASGRIIRTYAMGWYRQAPGKERELVATISYSSGRTYYADSVKGRFTISRDNAKNTVYLQMNSLKPEDTAVYYCARRRRSGSRQYYYWGQGTQVTVSS”, the “polyreactivity (PSR sort gate)” value is “high polyreactivity”.
Turning to “QDQLVESVVGLDQAGVSLRLSSAASGRTFRKYAMGCSRQAHGKERELVAAITSSGARTYYADSVKGRFTISRDNAKNTVYLQMNSLKPEDTAVYYCNAVSPYYGIEFEYWGLGTQVTVSS”, the “polyreactivity (PSR sort gate)” value is reported as “high polyreactivity”.
For the sequence “QDQLVETAGGLVQAGVTHTLSCAASAFTFRNYAMGWYRQAPGKESEFVAAISRRGGSTYYADSVKGRFTISRDNAKNTVYLQLNCLKPEDTAVYYCATEPGKQNTYRMDYWGQGTQVTVSS”, the “polyreactivity (PSR sort gate)” value is “high polyreactivity”.
With “QDQLVETGGGLVQAGVSLRISCAASGSTFYYNAMGWYRQAPGKERELVAAITWSGDSTYYADSVKGRFTISRDNAKNTVYLQMNSLKPEDTAVYYCNAEYYDYFDYVSDYWGQGTQVTVSS” the entry was “low polyreactivity”.
As to “QDQLVVSGGGLVHAGGSLRLSCAASGRIFHAYGMGWYRQAPGQERELVAAITWRGVSTYYADSVKGRFTISRDNAKNTVYLQMNSLKPEDTAVYYCAARVTPGRNGGGYWGQGTQVTVSS”, the “polyreactivity (PSR sort gate)” value is “high polyreactivity”.
With “QEQLEESGGGLVQAGGSLRLSCAASGFTLGRYAMGWYIQAPGKERELVAAINSSGGRTYYADSVNGRFTISRDTAKNTVYLQLNSLKPEDTAVYYCATVNVRGPPYDFWGQGTQVTVSS” the entry was “high polyreactivity”.
With “QEQLHESGGGLVQAGGSLRLSCAASGTISYAGPIGWDRQAPGKAREFVAGIGVGSNTNYADSVKGRFTIIRDNAKNTVYLQMNSLKPEDTAVYYCAVGGYAPLGRPYWGQGTQVTVSS” the entry was “low polyreactivity”; with “QEQLQESGGGLVQAGGSLRLSCAASGYISQSSVMGWYRQAPGKEREFVASISYGATTYYADSVKGRFTISRDNAKNTVYLQTNSRKPEDTAVYYCAVWVKRGFSHRYWGQGTQVTVSS”, “high polyreactivity”.
Take “QEQLQESGGGQVQAGGSLLLSCAASGNIIRYYYMGWYRQAPGKERELVAAITYGTSTNDADSVKGRFTISRDNAKNTVYLQMNSLKPEDTAVYYCAVDVNYGDPLDNWGQGTQVTVSS”: the “polyreactivity (PSR sort gate)” value was “high polyreactivity”.
In the case of “QEQLQESGGGQVQAGGSLLLSCAASGNIIRYYYMGWYRQAPGKERELVAAITYGTSTNYADSVKGRFTIRRDNAKNTVYLQMNSLKPEDTAVYYCAVDVNYGDPLDNWGQGTQVTVSS”, the “polyreactivity (PSR sort gate)” value was “high polyreactivity”.
With “QEQLQESGSGLVQAGGSLRLSCAASGNIFRDWVMGWYRQAPGKERELVAAISPGAITYYADSVKGRFTISRDNAKNTVYLQTNSLKPEDTEVYYCAAYYIVEYLHGYWGQGTRVTVSS” the entry was “low polyreactivity”; with “QEQLQESGSGLVQAGVSLRLSSAASGNIVQDWVMGWYRQAPGKERELVAAISPGAITYYADSVKGRFTISSDNAKNTVYLQTNRLNPEDTAVYYCAAYYIVEFLHGYWGQGTRVTVSS”, “low polyreactivity”.
Next, “QEQLQGSGGGLVQAGGSLRLTCAASGYIFQNVPMGWNRQAPGKERQLLAGIDNGTSTNYADSVNGRFTISRDNAKNTVYLQMNSLKPEDTAVYYCAAAGQADDTLGYWGQGTQVTVSS”: “low polyreactivity”; “QEQLVESGGGLVQAGGSLRLSCAATGLTITDYAMGWYRQAPGKERELDAGINTRGTSRYSADSVKGRFTISRDNAKNTVYFQMFSLNPEDTAVYYCDSEYFGYWYGIQYDYWGQGTQVTVSS”: “high polyreactivity”; “QEQLVESGGGLVQAGGTLRLSSAASVNTISPNAMGWYRQPPGKERELVAAIDSRDGIRYYADSVKGRFTISRDNAKNTVYLQMNSLKPEDTAVYYCAPDEWYGESNYWGQGTQVTVSS”: “low polyreactivity”.
